Assay in all cases: EMSA
Common to all, as to conditions: N16 of strand 1 = tetrahydrofuran (THF) abasic site analog; EMSA: 50 mM Tris pH 8.0, 1 mM EDTA, 0.2 mg/ml BSA, 50 mg/ml sucrose, 0.5 mg/ml bromophenol blue, 1 mM DTT; 2 nM DNA, at least 20 min; 10% 59:1 native gel …
For orientation: In EMSA bound probe runs differently from free probe, usually more slowly.

Data set [1] addresses APE1 N174K N174K (Homo sapiens) (UniProt P27695).
For data set [2], the target named is APE1 N174D N174D (Homo sapiens) (UniProt P27695).
In data set [3] the target is APE1 N174A N174A (Homo sapiens) (UniProt P27695).
The target of data set [4] is APE1 WT (Homo sapiens) (UniProt P27695).
Sequence of APE1 WT (Homo sapiens) (P27695 whole entry): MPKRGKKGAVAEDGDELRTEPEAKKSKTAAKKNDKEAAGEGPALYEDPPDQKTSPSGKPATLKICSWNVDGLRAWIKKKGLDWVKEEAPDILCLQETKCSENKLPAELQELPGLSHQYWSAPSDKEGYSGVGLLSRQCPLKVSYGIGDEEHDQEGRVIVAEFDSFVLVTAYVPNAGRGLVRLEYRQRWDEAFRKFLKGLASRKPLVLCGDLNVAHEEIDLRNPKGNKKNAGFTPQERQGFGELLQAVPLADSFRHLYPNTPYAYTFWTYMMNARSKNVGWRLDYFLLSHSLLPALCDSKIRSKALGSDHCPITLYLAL

Sequence of APE1 N174D N174D (Homo sapiens) (P27695 whole entry N174D): as the sequence (P27695 whole entry) above, with N174D counted along it
Sequence of APE1 N174K N174K (Homo sapiens) (P27695 whole entry N174K): as the sequence (P27695 whole entry) above, with N174K counted along it
Sequence of APE1 N174A N174A (Homo sapiens) (P27695 whole entry N174A): as the sequence (P27695 whole entry) above, with N174A counted along it

As usually defined, the Kd is the free concentration of one partner at which half of the binding sites on the other are occupied at equilibrium, for simple one-to-one binding. Lower therefore signals a tighter complex. Consider “CGTTCGCTGATGCGCNCGACGGATCCGCAT / ATGCGGATCCGTCGAGCGCATCAGCGAACG [30-bp THF AP-DNA]”, for which the dissociation constant (Kd) in data set [1] worked out at 17 nM; in data set [2], 13 nM; in data set [3], 44 nM; in data set [4], 0.9 nM.

The values are drawn from PMC12557600.
